# B1: mouse interleukin 1α: mouse interleukin 1α (protein, UniProt P01582 115-270, looked up)
# Interleukin-1 alpha: SAPYTYQSDLRYKLMKLVRQKFVMNDSLNQTIYQDVDKHYLSTTWLNDLQQEVKFDMYAYSSGGDDSKYPVTLKISDSQLFVSAQGEDQPVLLKELPETPKLITGSETDLIFFWKSINSKNYFTSAAYPELFIATKEQSRVHLARGLPSMTDFQIS
# B2: mouse interleukin 1β: mouse interleukin 1β (protein, UniProt P10749 118-269, looked up)
# Interleukin-1 beta: VPIRQLHYRLRDEQQKSLVLSDPYELKALHLNGQNINQQVIFSMSFVQGEPSNDKIPVALGLKGKNLYLSCVMKDGTPTLQLESVDPKQYPKKKMEKRFVFNKIEVKSKVEFESAEFPNWYISTSQAEHKPVFLGNNSGQDIIDFTMESVSS
# B3: hTNF-β: Human recombinant TNF-β (lymphotoxin) (protein, UniProt P01374 35-205, looked up)
# Lymphotoxin-alpha: LPGVGLTPSAAQTARQHPKMHLAHSTLKPAAHLIGDPSKQNSLLWRANTDRAFLQDGFSLSNNSLLVPTSGIYFVYSQVVFSGKAYSPKATSSPLYLAHEVQLFSSQYPFHVPLLSSQKMVYPGLQEPWLHSMYHGAAFQLTQGDQLSTHTDGIPHLVLSPSTVFFGAFAL
# B4: del mTNF-α: tip-deleted mTNF-α; the TPEGAE coding sequence is deleted from the mTNF gene (protein)
# chain: LRSSSQNSSDKPVAHVVANHQVEEQLEWLSQRANALLANGMDLKDNQLVVPADGLYLVYSQVLFKGQGCPDYVLLTHTVSRFAISYQEKVNLLSAVKSPCPKDLKPWYEPIYLGGVFQLEKGDQLSAEVNLPKYLDFAESGQVYFGVIAL
# Key:
# [1] = tested on: Trypanosoma brucei brucei; experiment: In vitro trypanocidal assay, T. brucei brucei; type: cell-based; settings: T. brucei brucei, 5 h, data not shown
# Procedure: (§1) The Trypanosoma brucei brucei AnTat 1.1 (EATRO 1125) pleomorphic bloodstream form was kindly provided to us by Dr. N. Van Meirvenne of the Institute for Tropical Medecine, Antwerp, Belgium, and the Trypanosoma brucei rhodesiense Trp 11 pleomorphic bloodstream form was kindly provided to us by Dr. E. Bajyana Songa (Dept. Molecular Biology, Free University of Brussels, Belgium)
# (§2) After 5 h of incubation, the number of live (=moving) parasites was assessed (counting chamber) and compared the control wells in which only incubation medium was added to the trypanosomes. […] All treatments were done in quadruplicate and all reported in vitro trypanolysis experiments were repeated at least 3 times.
# [2] = tested on: Trypanosoma brucei rhodesiense; experiment: In vitro trypanocidal assay, T. brucei rhodesiense; type: cell-based; settings: 5 h, data not shown
# Procedure: as §1, §2
# [3] = tested on: 3LL-R Lewis lung carcinoma cells; experiment: Experimental metastasis inducing capacity on TNF resistant 3LL-R Lewis lung carcinoma cells; type: in vivo, mouse (C57bl/6); settings: for metastasis enhancing potential compared with wild type TNF: 3LL-R
# Procedure: At this time, all mice were killed and the lung weight as well as the amount of cancer cell nodules in the lung was assessed.
# [4] = tested on: human interleukin-6 (IL6); experiment: IL6 production by hMVECb cells; type: cell-based; settings: for IL6 concentration: 24 hours
# Procedure: Subsequently, the IL6 concentration in the supernatant of the cells was assessed using a commercially available hIL6 ELISA kit (Medgenix, Belgium).
# [5] = In vivo half life of wild type and tip-deleted TNF-α (serum concentration)
# Procedure: An ELISA assay to measure the protein concentration of the wild type and tip-deleted or tip-mutated mouse TNF-α protein was developed. […] Subsequently, the plates were washed once with washing buffer (PBS, 0.05% Tween-20) and the remaining binding sites were blocked for at least one hour at 37° C. with 300 μl per well of PBS buffer supplemented with 1% BSA and 0.1% NaN3. Dilutions of sample or standard mTNF-α (0.01 to 10 ng/ml mTNF-α), made in 100 μl of PBS supplemented with 1% BSA, 1% rabbit serum, and 0.1% mertiolate are then added to each well and incubated for 2 hours at 37° C. […] Subsequently, the plates are washed four times with washing buffer wherafter 100 μl of straptavidin-horseradish peroxidase (Jackson Immunoresearch Labs), which has been diluted in sample diluent to a concentration of 100 ng/ml is added and incubated for 30 minutes at 37° C. […] The reaction is stopped by adding 100 μl per well of 2N H2SO4 wherafter the optical density is read at dual wavelength (450/595 nm).
# Female 8 weeks old C57bL/6 mice (6 mice/group--Charles Rivers Deutshland) were injected intraperitoneally with 1 μg/mouse of either wild type mouse TNF-α or tip deleted TNF-α. Subsequently, the mice were bled 0.5, 5, 10, 15, 30, 60, 120, 180, or 240 minutes post-injection.
# [6] = tested on: human interleukin 8 (IL8); experiment: IL8 production by hMVECb cells; type: cell-based; settings: for IL8 concentration: 24 hours; for IL8 induction compared with wild type: human endothelial brain cells
molecule,measurement,setting,value
B1,mortality of trypanosomes,[1],do not cause any mortality
same,mortality of trypanosomes,[2],do not cause any mortality
B2,mortality of trypanosomes,[1],do not cause any mortality
same,mortality of trypanosomes,[2],do not cause any mortality
B3,mortality of trypanosomes,[1],do not cause any mortality
same,mortality of trypanosomes,[2],do not cause any mortality
B4,metastasis enhancing potential compared with wild type TNF,[3]; listed as TNF tip deletion mutant,considerably lower than that of wild type TNF
same,metastasis enhancing potential compared with wild type TNF,[3]; listed as mTNFα mutein carrying a deletion of the region extending from amino acids 105 to,considerably lower in vivo metastasis enhancing potential
same,general condition of mice,[3]; 17 days,looked significantly better
same,mean lung weight,"[3]; 17 days, 5 μg/mouse i.p. 5 hours prior to 3LL-R cells",566 ± 318
same,IL6 concentration,"[4]; 333 pg/ml, experiment 1",760 pg/mL
same,IL6 concentration,"[4]; 333 pg/ml, experiment 2",850 pg/mL
same,IL6 concentration,"[4]; 1000 pg/ml, experiment 1",1180 pg/mL
same,IL6 concentration,"[4]; 1000 pg/ml, experiment 2",1600 pg/mL
same,IL6 concentration,"[4]; 1666 pg/ml, experiment 1",1240 pg/mL
same,IL6 concentration,"[4]; 1666 pg/ml, experiment 2",1900 pg/mL
same,IL6 induction compared with wild type,[4]; hMVECb,higher induction of human interleukin-6
same,longer half life than wild type TNF-α,[5]; 1 μg/mouse i.p.,at least 2 fold
same,concentration TNF-α,"[5]; Experiment 1, 0.5 minutes, 1 μg/mouse i.p.",1000 ng/mL
same,concentration TNF-α,"[5]; Experiment 1, 5 minutes, 1 μg/mouse i.p.",990 ng/mL
same,concentration TNF-α,"[5]; Experiment 1, 10 minutes, 1 μg/mouse i.p.",640 ng/mL
same,concentration TNF-α,"[5]; Experiment 1, 15 minutes, 1 μg/mouse i.p.",550 ng/mL
same,concentration TNF-α,"[5]; Experiment 1, 30 minutes, 1 μg/mouse i.p.",580 ng/mL
same,concentration TNF-α,"[5]; Experiment 1, 60 minutes, 1 μg/mouse i.p.",450 ng/mL
same,concentration TNF-α,"[5]; Experiment 1, 120 minutes, 1 μg/mouse i.p.",250 ng/mL
same,concentration TNF-α,"[5]; Experiment 1, 180 minutes, 1 μg/mouse i.p.",100 ng/mL
same,concentration TNF-α,"[5]; Experiment 1, 240 minutes, 1 μg/mouse i.p.",10 ng/mL
same,concentration TNF-α,"[5]; Experiment 2, 0.5 minutes, 1 μg/mouse i.p.",1000 ng/mL
same,concentration TNF-α,"[5]; Experiment 2, 15 minutes, 1 μg/mouse i.p.",600 ng/mL
same,concentration TNF-α,"[5]; Experiment 2, 30 minutes, 1 μg/mouse i.p.",500 ng/mL
same,concentration TNF-α,"[5]; Experiment 2, 60 minutes, 1 μg/mouse i.p.",500 ng/mL
same,concentration TNF-α,"[5]; Experiment 2, 120 minutes, 1 μg/mouse i.p.",330 ng/mL
same,concentration TNF-α,"[5]; Experiment 2, 180 minutes, 1 μg/mouse i.p.",240 ng/mL
same,concentration TNF-α,"[5]; Experiment 2, 240 minutes, 1 μg/mouse i.p.",20 ng/mL
same,in vivo half life compared with wild type,[5]; L929 cytotoxic assay and indirect ELISA,increased half life
same,IL8 concentration,"[6]; 333 pg/ml, experiment 1",1800 pg/mL
same,IL8 concentration,"[6]; 333 pg/ml, experiment 2",2450 pg/mL
same,IL8 concentration,"[6]; 1000 pg/ml, experiment 1",1300 pg/mL
same,IL8 concentration,"[6]; 1000 pg/ml, experiment 2",2200 pg/mL
same,IL8 concentration,"[6]; 1666 pg/ml, experiment 1",850 pg/mL
same,IL8 concentration,"[6]; 1666 pg/ml, experiment 2",1250 pg/mL
same,IL8 induction compared with wild type,[6]; listed as deletion mutant of mTNFα in the region extending from amino acids 105 to 110,induce consistently less human interleukin 8 (IL8)
same,IL8 induction compared with wild type,[6]; listed as tip deletion mutant,about two times more powerful in inducing the inflammatory cytokine IL8
